The values that follow come from a protein production outcome set (Wang et al. 2014).

This series can be described thus: label from the status in PepcDB records.
With “MSGVLLLFIIGFIGSFISGMVGIGGAIINYPMILYIPVLLGFTGYTSHEVSGITAVQVFFATFAGAWAYRKSTDMNKMLVVYMGASILIGSFIGSFSANLLDEHAVNVVYTVLATIAAMMMFVPKKNNSGAVKYNKWLASVLAFIVGGVSGIIGAGGAFLLVPIMLVILKLPLRMTIATSIAITFISSVGITTGKVITGQVVIIPALIIAVASIFAAPLGARVGKRINQKVLQYMLSILIVGTAVKMWIDMILK”, the protein production result is recorded as “failed”.

With “MQLPLHQVAQPAFYISVVPDMVGGRLSSHDRDLLGLAHQLAGQDGAVLAVVFGEHKESAFATAGVDRLLVLQGSEFEGYAPEQRVQGLRAVDNQFSPRHWLLPDSRTGGGELGRRFAAALGERPATRVWQVKDGQCIGRAGAGLQDLARPVVRLILAAAECAEPVSETRHEALPVELSTSVARSLARIEDLGAVAVDPAAIPMAEAEFIFSGGNGVKDWPLFHQTAAALGATEGASRVAVDDGFMARDRQVGASGIWVTARVYVAVGISGAIQHLQGIGACDKVVAINLDPGCDMIKRADLSVIGDSAEILKALIAAVAAYRNDAKRDAA”, the protein production result is on record as “failed”.

In the case of “MSLHAAAVGPSVLPDLREQVEQIIAEARRQGASACEVAVSLEQGLSTSVRQGEVETVEFNRDQGFGITLYAGQRKGSASTSATGEAAIRETVAAALAIARHTSEDECAGLADAALMARELPELDLYHPWSLSPEQAVERALACEAAAFAADKRVTKADGTTLNTHQGCRVYGNSHGFIGGYASTRHSLSCVMIAEGEGQMQRDYWYDVNRRGEALASAESIGRRAAERAASRLGARPVQTAEVPVLFAPEIAVGLFGHFLGAISGGSLYRKSSFLEGALGQRLFPEWLSIDERPHLVGALGSASFDSDGLATYAKPFVENGELVSYVLGTYSGRKLGLPSTANAGGVHNLFVSHGDEDQAALIRRMERGLLVTELMGQGVNLVTGDYSRGAAGYWVENGEIQFPVQEVTIAANLRDLFRRIVAVGKDIERRGNLHTGSVLVESMMVAGR”, the protein production entry is reported as “not failed”.

Consider “MDYLPVEVIGNILSRLGGARDVVIASATCRKWREACRKHLQTLSFNSADWPFYRDLTTNRLEILITQTIFQTMGLQGLSIMMDDANKFSAATVIAWLMYTRDTLRRLSYNVRTTPNVNILEICGRQKLEALVLAHNSITGVEPSFQRFPCLKSLSLSYVSISALDLNLLLSACPMIESLELVSLEIAMSDAQVTIELSSPTLKSVYFDGISLDKFILEADSIEFLHMKDCVLELFELIGNGTLKHFKLDDVSVIHLDIMETSESLEVVDVNHFTMVWPKFYQMISRSQKLKKLRLWDVVFDDDDEIIDVESIAAGFSHLTHLSLSYDLKDGAAHYSLQGTTQLENVTVLELGWTVINDVFSIWVEELLRRCPNLKKLIIYGVVSETKTQGDCQILATFTWSIVQLMRKYIHVEVQFEYE”, for which the protein production result is given as “failed”.

Consider “AQELAHKINHIVASRPATAAMLQEIAHLVGTATNVDCCCLVTVTNEESTETTTANWCSDEFLGVPLSNEMFSTERFLMELPVLQCAVEPRNIDEISIIRNSLVVGCQHLPLPIKAVLAISTRFGGKTNGVISLIKFQSHDWDDSAKNILKTIEASCAIAFSQLTQAQLISSQQQHLQ”, for which the protein production entry is recorded as “failed”.

As for “MRIRLLGGLEVMSREHRQVRFTTRKTSLLFAALVLGGRRGYRRELLSETFWPGRSNEQARNSLRQALVDIRRSFPAGGDAPVYIDGDQETVALITGPDETDISIFDRKLEAGRTADLAFAADLYRGEVLAGEAIPDELDEWFGPYRSTYQRKALQLVERLSQALSEPGTAEESACEGLAERLLAMDPTVEAAHRALMQIHALRGHENAALRQFEACRALLRKHLQAEPEAETSSLAASLQSRQGSEHRRTTPGPDPVPQPQAISAPAKHHDRPSVAVLPFQNLSGDAEQEYFADGIVEDITIALAQFRHLYVIARNSSFTYKGQAVDIKQVGRELDVRYVVEGSVRRTGDRLRIAGQLIDTSTGTHLWADRFDGTLANVFDLQDQVASSIVGAITPKVEEAEIERAKRKPTESLDAYDYYLRGLAAFDRTVTNRSVIDEALRLFREAIERDPEFAVAHARAARCYATRKSNGWMLNPADETAEATRLARRAVELGWDDAVALTYGGYVIGYVGGDLDDSAACIDRAVSLNPNLAAALGVSSWVKVCLGEPDKAIEHATLAMRLSPLDPRLFAWQFNIGLAHFCAGHYDDAAVWAGKSLRHQLNYPSAMRVMAASQAMAGRLAQARETIARLCLMDPALRLSNLADVLPPFRRPDDRNRYIEALRMAGLPE”, the protein production entry is listed as “failed”.

Regarding “MQVLVVGANGQVGRLLMQQLLAAGDTPVAGLKPTEDGEEWADQGLMVCKMDLLAKPEQLASAIMGMDAVIFAAGSGGQTKADMTLLIDLDGAVKTMQAAEIAGVSRFLMISMLFAEDRNRWADPLKPLYVAKFYADNWLVRQTHLDYTIVQPGALSFHAGTGLIKSDPLAVGSVPRADLAAFLVAALHAPQTIGKTIPLLSGDQSIAQVIDQL”, the protein production entry is listed as “failed”.

As to “MRQKETTATTRFSLLPGSITRFFLLLIIVLLVTMGVMVQSAVNAWLKDKSYQIVDITHAIQKRVDNWRYVTWQIYDNIAATTSPSSGEGLQETRLKQDVYYLEKPRRKTEALIFGSHDNSTLEMTQRMSTYLDTLWGAENVPWSMYYLNGQDNSLVLISTLPLKDLTSGFKESTVSDIVDSRRAEMLQQANALDERESFSNMRRLAWQNGHYFTLRTTFNQPGHLATVVAFDLPINDLIPPGMPLDSFRLEPDATATGNNDNEKEGTDSVSIHFNSTKIEISSALNSTDMRLVWQVPYGTLLLDTLQNILLPLLLNIGLLALALFGYTTFRHFSSRSTENVPSTAVNNELRILRAINEEIVSLLPLGLLVHDQESNRTVISNKIADHLLPHLNLQNITTMAEQHQGIIQATINNELYEIRMFRSQVAPRTQIFIIRDQDREVLVNKKLKQAQRLYEKNQQGRMIFMKNIGDALKEPAQSLAESAAKLNAPESKQLANQADVLVRLVDEIQLANMLADDSWKSETVLFSVQDLIDEVVPSVLPAIKRKGLQLLINNHLKAHDMRRGDRDALRRILLLLMQYAVTSTQLGKITLEVDQDESSEDRLTFRILDTGEGVSIHEMDNLHFPFINQTQNDRYGKADPLAFWLSDQLARKLGGHLNIKTRDGLGTRYSVHIKMLAADPEVEEEEERLLDDVCVMVDVTSAEIRNIVTRQLENWGATCITPDERLISQDYDIFLTDNPSNLTASGLLLSDDESGVREIGPGQLCVNFNMSNAMQEAVLQLIEVQLAQEEVTESPLGGDENAQLHASGYYALFVDTVPDDVKRLYTEAATSDFAALAQTAHRLKGVFAMLNLVPGKQLCETLEHLIREKDVPGIEKYISDIDSYVKSLL”, the protein production entry is “failed”.

On to “MAQNNENALPDITKSITLEAPIQKVWETVSTSEGIAKWFMPNDFQLKEGQEFHLQSPFGPSPCKVLAVQAPTELSFEWDTEGWVVTFQLEDLGEKTGFTLIHSGWKEPNEVIGKANEKSSVVRGKMDGGWTGIVNERLRKAVEELEHHHHHH”, for which the protein production result is “not failed”.

As for “MGNCVFKGNGGSRKLYDKDDSLIKVVTPNGGVMELHPPIFAEFITNEFPGHVIHDSLSLRHSSPPLLHGEELFPGNIYYLLPLSSSAAATAQLDSSDQLSTPYRMSFGKTPIMAALSGGGCGVWKVRLVISPEQLAEILAEDVETEALVESVRTVAKCGGYGCGGGVHSRANSDQLSVTSSFKGKLW”, the protein production entry was “not failed”.

With “MTEAGASIVVTVKNEGKNLRELLESIEKNDFTNFETVVVDDLSTDDTEDIVKSYRFTVYKRIACSRGEGRNIGVDLSRYGYILFTDGDAKVSEHWISGMVSALAAGNDAVIGNTLYTGKRRYMQERVKIFLEGIEVTAPSVNLAYRKDRFRQLGGFDPKFVTAEDIDLNIRAVKAGFRFATCDSCVVYAKVRENLASFLRQAYWNGYGRYQLEMKHPGITRNTRVRLGHNFFDFLHMVSGAAGYLSARISEGKQGRLEHHHHHH”, the protein production entry was “not failed”.

As for “MTITNSKAEAWELIGNQFWTIGRVAARPSDRENDIFLENIVPGSTVAVIGASTRFLIEKALERGASVTVFDFSQRMCDDLAEALADRCVTIDLLDITAEIPKELAGHFDFVLNDRLINRFTTEEARRACLGMLSLVGSGTVRASVKLGFYDIDLKLIEYGEQSGTLAKFFDPSDKTFHFREAGDVLDRALVPHGLIDKPTLLEWYRRRGKETRFDDEDVRAL”, the protein production result is reported as “failed”.

“MTVSHHNASTARFYALRLLPGQEVFSQLHAFVQQNQLHAAWIAGCTGSLTDVALRYAGQEATTSLTGTFEVISLNGTLELTGEHLHLAVSDPYGAMLGGHMMPGCTVRTTLELVIGELPALTFSRQPCAISGYDELHISSRLEHHHHHH”: the protein production entry is given as “not failed”.

As for “MAKKTLILYYSWSGETKKMAEKINSEIKDSELKEVKVSEGTFDADMYKTSDIALDQIQGNKDFPEIQLDNIDYNNYDLILIGSPVWSGYPATPIKTLLDQMKNYRGEVASFFTSAGTNHKAYVSHFNEWADGLNVIGVARDDSEVDKWSK”, the protein production entry was “not failed”.

As to “MAGLINKIGDALHIGGGNKEGEHKKEEEHKKHVDEHKSGEHKEGIVDKIKDKIHGGEGKSHDGEGKSHDGEKKKKKDKKEKKHHDDGHHSSSSDSDSD”, the protein production result is reported as “failed”.

On to “MRYERDMRGYGANPPDPKWPGGAHVAVQFVVNYEEGGENCVLHGDKASEAFLSEIVGAAPWVGQRHWNMESIYEYGARAGFWRLLRLFSESQVPVTCYGVASALARSPDQVTAMQDAGWEIASHGLRWIDYRDHSAEDERRDLEAAIKLHYEVTGQRPTGWYTGRTSVNTVRLVAEEGGFDYVSDTYDDELPYWFEHAGGTQLIIPYTLDANDMRFATPQGFNSGDQFFAYLKDSFDTLYAEGQAGRPRMMNIGLHCRLVGRPGRVAALKRFVDYVKSHDKVWLTRRIDIAKHWQENHPYKPAALRPSKMEFEIFVHTFGGVFEHSPWIAERAYELELGPAHDTAGGLHNALCRIFRSASETERLGVLNAHPDLAGKLAKARRLTAESTREQASAGLDALTDKERELFSKLNAAYVTTFGFPFIIAVKGKTKEEILAEFEARIGNSRGVEFETACKQVERIALLRLRDMLPQ”, for which the protein production result is “failed”.

For the sequence “MQQKLENIKFVITDVDGVLTDGQLHYDANGEAIKSFHVRDGLGIKMLMDADIQVAVLSGRDSPILRRRIADLGIKLFFLGKLEKETACFDLMKQAGVTAEQTAYIGDDSVDLPAFAACGTSFAVADAPIYVKNAVDHVLSTHGGKGAFREMSDMILQAQGKSSVFDTAQGFLKSVKSMGQ”, the protein production entry is listed as “not failed”.

As to “MKTSLRLEDGTKNSLQIPIDLIIEIFLRLSVNSIARCRCVSKQWASTLSRPYFTELFLTRSLARPKLLFAYRKGSDYLFLSSPQLQNPDDDHKKSSPVVVNYHMHHILTLGSGNMSWRTIQCCIPHRSFDGGICIDGLIYYYAGVNNNDIVIVCFDVRSEEFRFIIGALHHGSLINYNGKLSLYLPSTVYSRFNGVIRSIKLWVLEDAKRQEWSEHTYILPAMHDIMKTTDLRCVGMTQTKEFVFWSIKGMRFYVFYYNIERNTIKKVEMQGMEAFKESNVYTFLDHVEDVKLMQFF”, the protein production result is recorded as “failed”.

Consider “MPDIFQQEARGWLRCGAPPFAGAVAGLTTKHGGESKGPFASLNMGLHVGDDRTDVVNNRRRLAEWLAFPLERWVCCEQVHGADIQKVTKSDRGNGAQDFATAVPGVDGLYTDEAGVLLALCFADCVPIYFVAPSAGLVGLAHAGWRGTAGGIAGHMVWLWQTREHIAPSDIYVAIGPAIGPCCYTVDDRVVDSLRPTLPPESPLPWRETSPGQYALDLKEANRLQLLAAGVPNSHIYVSERCTSCEEALFFSHRRDRGTTGRMLAFIGRREEWT”, for which the protein production result was “not failed”.

As for “MEDIIVVENLVKKFGDFEAVKGVSFSVKKGEIFAFLGPNGAGKTTTIHMLTTLLKPTSGKAWVAGHDVLKEPREVRRKIGIVFQDQSLDRELTAYENMYIHGKIYGYGGEKLKKRILELLEFVELLEFKDKPVKTFSGGMARRLEIARSLIHEPEVLFLDEPTIGLDPHTRAHMWEYISKMKKEHNMTIFLTTHYMDEAEQLADRVAIIDHGKIIALGTPTELKRMVGKEIIYVRFSEAVECLEGDFIESCRKLPDGRLELNVEDSGRAIPKIFELAQQKGLKIEEITYHKPTLNDVFLHLTGRELREEGPENSFKTMARMRMRMRR”, the protein production result was “not failed”.
